Measurements: US20230041030A1

Molecular target: HLA-A*0201 MART-1 peptide complex on peptide-loaded K562 cells (human)
Assay: cell-based or functional assay

MART-1/Melan-A specific TCR DMF5 showed a CD25 Fold Change (TCR-transduced CD8+ Jurkat KO cells co-cultured with peptide-loaded K562 APCs) of 235 fold, a CD69 Fold Change (TCR-transduced CD8+ Jurkat KO cells co-cultured with peptide-loaded K562 APCs) of 45 fold and an IL2 Fold Change (TCR-transduced CD8+ Jurkat KO cells co-cultured with peptide-loaded K562 APCs) of 33 fold.
